“And” between values parts separate entries of the source, which are not always exact repeats. Equal entries are not always repeated.
T1: human 5T4 antigen on cells (MDAMB435/5T4 transfectants; MDA-MB-468) (human, UniProt Q13641 32-420)
T1 sequence (looked up): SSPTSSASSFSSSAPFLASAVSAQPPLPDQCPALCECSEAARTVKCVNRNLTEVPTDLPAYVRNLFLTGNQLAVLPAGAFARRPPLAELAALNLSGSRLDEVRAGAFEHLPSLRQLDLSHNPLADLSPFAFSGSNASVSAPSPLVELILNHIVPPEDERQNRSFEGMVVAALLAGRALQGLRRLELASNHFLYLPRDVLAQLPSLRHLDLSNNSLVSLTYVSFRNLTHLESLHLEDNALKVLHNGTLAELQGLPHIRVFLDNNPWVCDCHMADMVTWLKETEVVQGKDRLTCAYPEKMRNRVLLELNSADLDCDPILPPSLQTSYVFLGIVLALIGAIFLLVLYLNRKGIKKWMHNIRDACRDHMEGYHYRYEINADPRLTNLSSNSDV

T2: human truncated recombinant 5T4 protein (5T4-tm-_myc_his) (human, UniProt Q13641 32-355)
T2 construct: extracellular domain; Coated on the ELISA plate; construct cited to Boghaert et al. 2008; also called 5T4 antigen; not shown: Myc and histidine tags
T2 sequence (looked up): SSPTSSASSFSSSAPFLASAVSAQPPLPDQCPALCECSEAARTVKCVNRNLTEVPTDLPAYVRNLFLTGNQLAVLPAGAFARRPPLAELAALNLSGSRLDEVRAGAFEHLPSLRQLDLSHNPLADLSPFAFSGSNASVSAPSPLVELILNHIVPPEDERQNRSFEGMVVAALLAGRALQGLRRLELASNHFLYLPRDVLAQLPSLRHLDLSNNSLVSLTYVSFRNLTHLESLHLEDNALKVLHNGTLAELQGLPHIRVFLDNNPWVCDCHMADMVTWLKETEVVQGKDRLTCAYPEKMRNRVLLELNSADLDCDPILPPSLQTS

B1: 5T4-E380C-mcMMAD (antibody, human IgG1, kappa)
heavy: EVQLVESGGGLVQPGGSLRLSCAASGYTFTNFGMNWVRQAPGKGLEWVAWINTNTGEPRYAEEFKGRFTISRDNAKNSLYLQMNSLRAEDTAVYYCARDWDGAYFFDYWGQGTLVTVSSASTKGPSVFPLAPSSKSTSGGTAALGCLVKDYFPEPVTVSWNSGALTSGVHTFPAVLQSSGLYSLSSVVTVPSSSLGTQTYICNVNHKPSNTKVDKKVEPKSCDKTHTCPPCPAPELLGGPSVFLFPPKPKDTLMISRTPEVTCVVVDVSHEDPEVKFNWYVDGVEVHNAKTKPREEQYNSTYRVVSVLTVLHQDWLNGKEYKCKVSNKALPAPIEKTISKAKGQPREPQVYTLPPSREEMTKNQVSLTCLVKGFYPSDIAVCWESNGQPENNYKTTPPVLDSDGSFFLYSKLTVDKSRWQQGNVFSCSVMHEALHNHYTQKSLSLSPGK
light: DIQMTQSPSSLSASVGDRVTITCKASQSVSNDVAWYQQKPGKAPKLLIYFATNRYTGVPSRFSGSGYGTDFTLTISSLQPEDFATYYCQQDYSSPWTFGQGTKVEIKRTVAAPSVFIFPPSDEQLKSGTASVVCLLNNFYPREAKVQWKVDNALQSGNSQESVTEQDSKDSTYSLSSTLTLSKADYEKHKVYACEVTHQGLSSPVTKSFNRGEC
modifications: mcMMAD on engineered Cys 380 (EU)
notes: Antibody-drug conjugate
B2: 5T4-L398C-mcMMAD (antibody, human IgG1, kappa)
heavy: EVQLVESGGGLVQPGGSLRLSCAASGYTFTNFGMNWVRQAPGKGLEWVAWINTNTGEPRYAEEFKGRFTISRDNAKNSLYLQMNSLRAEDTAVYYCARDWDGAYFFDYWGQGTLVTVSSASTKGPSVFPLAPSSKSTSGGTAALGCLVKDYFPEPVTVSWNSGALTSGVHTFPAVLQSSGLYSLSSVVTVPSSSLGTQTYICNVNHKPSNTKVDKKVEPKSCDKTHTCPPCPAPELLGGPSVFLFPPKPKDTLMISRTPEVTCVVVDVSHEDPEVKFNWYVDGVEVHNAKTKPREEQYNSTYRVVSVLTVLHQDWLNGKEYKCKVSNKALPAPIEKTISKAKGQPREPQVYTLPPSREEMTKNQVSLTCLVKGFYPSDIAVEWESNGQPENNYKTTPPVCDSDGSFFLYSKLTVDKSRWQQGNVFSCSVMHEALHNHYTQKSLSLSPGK
light: B1 light
modifications: mcMMAD on engineered Cys 398 (EU)
notes: Antibody-drug conjugate
B3: 5T4-L443C-mcMMAD (antibody)
heavy: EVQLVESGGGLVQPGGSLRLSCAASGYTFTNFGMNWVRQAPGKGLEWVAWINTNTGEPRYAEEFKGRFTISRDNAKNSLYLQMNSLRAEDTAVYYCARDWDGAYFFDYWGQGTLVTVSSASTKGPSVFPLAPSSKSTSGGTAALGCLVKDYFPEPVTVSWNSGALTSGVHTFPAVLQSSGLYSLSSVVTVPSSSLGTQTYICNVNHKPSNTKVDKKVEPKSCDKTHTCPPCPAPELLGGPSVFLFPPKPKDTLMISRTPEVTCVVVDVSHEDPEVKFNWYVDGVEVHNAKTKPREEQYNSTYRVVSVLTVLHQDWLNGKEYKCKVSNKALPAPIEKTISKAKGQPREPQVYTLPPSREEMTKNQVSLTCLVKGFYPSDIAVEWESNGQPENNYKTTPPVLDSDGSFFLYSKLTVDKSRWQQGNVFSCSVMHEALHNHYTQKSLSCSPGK
light: B1 light
modifications: mcMMAD on engineered Cys 443 (EU)
notes: Antibody-drug conjugate; also called 5T4-L443C-mcMMAD (1)
B4: 5T4-V422C-mcMMAD (antibody, human IgG1, kappa)
heavy: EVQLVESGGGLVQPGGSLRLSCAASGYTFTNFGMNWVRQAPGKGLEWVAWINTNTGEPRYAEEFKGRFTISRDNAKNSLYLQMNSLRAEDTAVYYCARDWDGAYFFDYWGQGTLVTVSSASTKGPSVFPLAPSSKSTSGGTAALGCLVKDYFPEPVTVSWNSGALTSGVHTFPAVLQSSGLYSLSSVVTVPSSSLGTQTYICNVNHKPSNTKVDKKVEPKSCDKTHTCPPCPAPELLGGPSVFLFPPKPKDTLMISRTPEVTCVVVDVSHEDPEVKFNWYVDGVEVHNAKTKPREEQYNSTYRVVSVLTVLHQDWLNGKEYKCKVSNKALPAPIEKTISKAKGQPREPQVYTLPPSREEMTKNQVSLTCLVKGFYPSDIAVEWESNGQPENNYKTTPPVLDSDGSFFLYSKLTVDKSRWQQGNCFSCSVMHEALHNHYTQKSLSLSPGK
light: B1 light
modifications: mcMMAD on engineered Cys 422 (EU)
notes: Antibody-drug conjugate
B5: 5T4-K392C+L443C-mcMMAD (antibody)
heavy: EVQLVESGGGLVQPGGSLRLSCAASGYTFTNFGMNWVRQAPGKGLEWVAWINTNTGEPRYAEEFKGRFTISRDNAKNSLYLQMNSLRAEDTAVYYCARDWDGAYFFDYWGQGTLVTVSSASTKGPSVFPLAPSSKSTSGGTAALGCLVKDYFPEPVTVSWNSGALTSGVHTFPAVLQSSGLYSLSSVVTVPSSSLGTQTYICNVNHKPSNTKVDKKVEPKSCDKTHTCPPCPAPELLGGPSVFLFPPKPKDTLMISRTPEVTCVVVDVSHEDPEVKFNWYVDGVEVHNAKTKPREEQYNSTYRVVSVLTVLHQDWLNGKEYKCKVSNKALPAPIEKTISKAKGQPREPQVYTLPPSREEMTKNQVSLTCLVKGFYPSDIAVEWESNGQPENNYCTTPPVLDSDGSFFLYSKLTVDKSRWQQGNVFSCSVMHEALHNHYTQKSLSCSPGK
light: B1 light
modifications: mcMMAD on engineered Cys 392 and Cys 443 (EU)
B6: 5T4-L398C+L443C-mcMMAD (antibody)
heavy: not shown
light: B1 light
modifications: mcMMAD on engineered Cys 398 and Cys 443 (EU)
B7: 5T4-L398C+V422C-mcMMAD (antibody, human IgG1, kappa)
heavy: not shown
light: B1 light
modifications: mcMMAD on engineered Cys 398 and Cys 422 (EU)
B8: 5T4-E380C+L398C-mcMMAD (antibody, human IgG1, kappa)
heavy: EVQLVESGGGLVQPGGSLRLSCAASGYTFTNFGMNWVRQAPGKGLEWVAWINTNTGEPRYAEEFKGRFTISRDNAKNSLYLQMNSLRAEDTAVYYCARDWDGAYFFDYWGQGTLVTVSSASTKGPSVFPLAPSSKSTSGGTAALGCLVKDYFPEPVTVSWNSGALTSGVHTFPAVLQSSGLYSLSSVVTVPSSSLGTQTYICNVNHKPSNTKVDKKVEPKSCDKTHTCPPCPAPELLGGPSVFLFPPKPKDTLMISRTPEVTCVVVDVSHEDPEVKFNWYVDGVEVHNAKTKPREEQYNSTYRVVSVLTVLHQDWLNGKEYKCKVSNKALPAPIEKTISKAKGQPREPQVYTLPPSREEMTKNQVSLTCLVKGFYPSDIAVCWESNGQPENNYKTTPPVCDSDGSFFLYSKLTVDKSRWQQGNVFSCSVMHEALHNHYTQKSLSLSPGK
light: B1 light
modifications: mcMMAD on engineered Cys 380 and Cys 398 (EU)
B9: 5T4-E380C+L443C-mcMMAD (antibody)
heavy: not shown
light: B1 light
modifications: mcMMAD on engineered Cys 380 and Cys 443 (EU)
B10: 5T4-E380C+V422C-mcMMAD (antibody, human IgG1, kappa)
heavy: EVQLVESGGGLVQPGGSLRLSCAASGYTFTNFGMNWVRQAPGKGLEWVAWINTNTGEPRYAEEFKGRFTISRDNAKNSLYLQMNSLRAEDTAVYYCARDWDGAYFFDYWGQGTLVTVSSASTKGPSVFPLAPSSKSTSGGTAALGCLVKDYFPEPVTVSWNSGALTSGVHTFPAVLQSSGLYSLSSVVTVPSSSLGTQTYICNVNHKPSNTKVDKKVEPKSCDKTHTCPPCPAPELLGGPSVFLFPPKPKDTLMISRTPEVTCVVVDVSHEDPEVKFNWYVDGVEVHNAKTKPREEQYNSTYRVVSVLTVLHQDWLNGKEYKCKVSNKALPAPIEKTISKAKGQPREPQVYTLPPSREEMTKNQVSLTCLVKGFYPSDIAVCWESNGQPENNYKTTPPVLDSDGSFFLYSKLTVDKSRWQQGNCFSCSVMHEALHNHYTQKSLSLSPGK
light: B1 light
modifications: mcMMAD on engineered Cys 380 and Cys 422 (EU)
B11: 5T4-E380C-vcMMAD (antibody, human IgG1, kappa)
heavy: not shown
light: B1 light
modifications: vcMMAD (mcValCitPABC-MMAD) on engineered Cys 380 (EU)
B12: 5T4-L398C-vcMMAD (antibody, human IgG1, kappa)
heavy: not shown
light: B1 light
modifications: vcMMAD (mcValCitPABC-MMAD) on engineered Cys 398 (EU)
B13: 5T4-L443C-vcMMAD (antibody)
heavy: not shown
light: B1 light
modifications: vcMMAD (mcValCitPABC-MMAD) on engineered Cys 443 (EU)
B14: 5T4-V422C-vcMMAD (antibody, human IgG1, kappa)
heavy: not shown
light: B1 light
modifications: vcMMAD (mcValCitPABC-MMAD) on engineered Cys 422 (EU)
B15: 5T4-K392C-mcMMAD (antibody, human IgG1, kappa)
heavy: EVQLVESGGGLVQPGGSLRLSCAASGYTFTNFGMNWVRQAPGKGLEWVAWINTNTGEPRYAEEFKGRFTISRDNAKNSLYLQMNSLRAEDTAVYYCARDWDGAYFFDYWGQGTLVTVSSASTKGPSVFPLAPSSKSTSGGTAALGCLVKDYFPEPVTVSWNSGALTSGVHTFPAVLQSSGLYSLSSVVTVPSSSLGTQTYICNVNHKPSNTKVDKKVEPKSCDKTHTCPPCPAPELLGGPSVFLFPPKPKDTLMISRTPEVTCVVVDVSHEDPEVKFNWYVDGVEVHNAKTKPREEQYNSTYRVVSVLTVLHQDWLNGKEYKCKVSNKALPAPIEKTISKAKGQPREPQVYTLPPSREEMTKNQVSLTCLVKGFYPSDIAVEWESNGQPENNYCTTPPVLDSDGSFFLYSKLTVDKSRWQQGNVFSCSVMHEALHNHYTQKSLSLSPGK
light: B1 light
modifications: mcMMAD on engineered Cys 392 (EU)
B16: parental anti-5T4 antibody (wild type human IgG1) (antibody)
heavy: not shown
light: B1 light
notes: Humanized, human IgG1/kappa; also called Parental anti-5T4 Ab; wt IgG1
B17: 5T4-E380C (antibody, human IgG1, kappa)
heavy: not shown
light: B1 light
B18: 5T4-K392C (antibody, human IgG1, kappa)
heavy: not shown
light: B1 light
B19: 5T4-L398C (antibody, human IgG1, kappa)
heavy: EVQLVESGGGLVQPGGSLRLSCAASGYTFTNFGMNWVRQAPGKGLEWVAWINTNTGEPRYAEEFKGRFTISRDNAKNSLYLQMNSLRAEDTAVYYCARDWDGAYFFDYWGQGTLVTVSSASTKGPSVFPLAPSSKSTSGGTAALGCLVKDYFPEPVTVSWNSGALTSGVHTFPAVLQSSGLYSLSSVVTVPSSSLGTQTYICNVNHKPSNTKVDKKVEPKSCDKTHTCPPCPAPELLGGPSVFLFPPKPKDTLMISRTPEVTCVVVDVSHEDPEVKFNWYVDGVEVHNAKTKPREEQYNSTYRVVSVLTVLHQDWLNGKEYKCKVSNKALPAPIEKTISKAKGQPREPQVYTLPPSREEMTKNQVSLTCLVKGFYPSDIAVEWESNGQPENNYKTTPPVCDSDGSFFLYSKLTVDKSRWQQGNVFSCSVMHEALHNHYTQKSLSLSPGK
light: B1 light
B20: 5T4-S440C (antibody, IgG1)
heavy: not shown
light: B1 light
B21: 5T4-V422C (antibody, human IgG1, kappa)
heavy: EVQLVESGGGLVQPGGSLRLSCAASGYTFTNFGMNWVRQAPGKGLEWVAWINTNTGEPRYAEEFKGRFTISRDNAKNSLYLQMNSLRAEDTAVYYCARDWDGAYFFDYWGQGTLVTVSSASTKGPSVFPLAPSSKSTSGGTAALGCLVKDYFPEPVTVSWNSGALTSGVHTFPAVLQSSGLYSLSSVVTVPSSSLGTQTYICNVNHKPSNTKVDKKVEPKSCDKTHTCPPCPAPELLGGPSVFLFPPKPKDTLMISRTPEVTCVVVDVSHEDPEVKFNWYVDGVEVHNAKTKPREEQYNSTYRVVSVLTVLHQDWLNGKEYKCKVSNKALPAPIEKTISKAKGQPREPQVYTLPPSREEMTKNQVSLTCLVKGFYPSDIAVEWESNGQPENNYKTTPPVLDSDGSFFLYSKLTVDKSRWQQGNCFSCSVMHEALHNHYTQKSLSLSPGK
light: B1 light
B22: 5T4-T359C (antibody, human IgG1, kappa)
heavy: not shown
light: B1 light
B23: 5T4-F404C (antibody, human IgG1, kappa)
heavy: not shown
light: B1 light

biological target: T1, human 5T4 antigen on cells …; assay: cell-based or functional assay

Binder	IC50, growth inhibition (MTS), MDA-MB-468 cells (5T4 expression 2+)	IC-50, growth inhibition (MTS), MDAMB435/5T4 cells (5T4 expression 3+)
B1	8.1 µg/mL	170 ng ADC/ml
B2	13 µg/mL	160 ng ADC/ml
B3	20 µg/mL	120 ng ADC/ml
B4	36 µg/mL	270 ng ADC/ml
B5	30 µg/mL	98 ng ADC/ml
B6	5.5 µg/mL and 7.1 µg/mL	–
B7	17 µg/mL	100 ng ADC/ml
B8	5.1 µg/mL	79 ng ADC/ml
B9	3.3 µg/mL	79 ng ADC/ml
B10	5 µg/mL	100 ng ADC/ml
B11	–	15 ng ADC/ml
B12	–	14 ng ADC/ml
B13	1.4 µg/mL	40 ng ADC/ml
B14	–	15 ng ADC/ml
B15	32 µg/mL	160 ng ADC/ml

biological target: T3, human FcRn (human, UniProt P55899 24-297; P61769 21-119, limits assumed, biotinylated through an engineered Avi-tag); assay: BIAcore SPR, steady state, pH 6.0, biotinylated human FcRn on SA chip
T3 construct: Immobilised on a streptavidin chip; not shown: engineered Avi-tag
T3 sequence (P55899 24-297 limits assumed, chain 1 of 2): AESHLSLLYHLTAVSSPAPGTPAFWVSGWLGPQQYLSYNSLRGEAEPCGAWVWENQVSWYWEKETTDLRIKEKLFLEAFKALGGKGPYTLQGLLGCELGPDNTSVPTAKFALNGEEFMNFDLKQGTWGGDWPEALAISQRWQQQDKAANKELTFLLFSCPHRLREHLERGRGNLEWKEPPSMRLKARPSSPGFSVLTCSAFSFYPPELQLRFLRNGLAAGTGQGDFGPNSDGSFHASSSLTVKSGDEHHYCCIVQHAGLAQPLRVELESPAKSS
T3 sequence (P61769 21-119 limits assumed, chain 2 of 2): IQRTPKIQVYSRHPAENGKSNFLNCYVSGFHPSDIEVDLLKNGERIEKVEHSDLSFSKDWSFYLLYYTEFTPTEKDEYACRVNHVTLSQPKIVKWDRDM

Binder	Kd
B16	412 nM
B17	390 nM
B18	384 nM
B19	513 nM
B20	608 nM
B21	443 nM

biological target: T3, human FcRn; assay: as above; remark: another data set of the same source
Text: Binding is detected by surface plasmon resonance (SPR) of laser light refracting from the surface. Human FcRn was specifically biotinylated through an engineered Avi-tag using the BirA reagent (Catalog #: BIRA500, Avidity, LLC, Aurora, Colo.) and immobilized onto a streptavidin (SA) sensor chip to enable uniform orientation of the FcRn protein on the sensor.

Binder	Kd
B16	493 nM
B1	409 nM
B2	704 nM
B3	697 nM and 518 nM
B4	402 nM

biological target: T2, human truncated recombinant 5T4 protein …; assay: competition ELISA on plate-coated 5T4-tm-_myc_his; competitor: biotinylated wild type anti-5T4 antibody at 1.3 nM, detected with streptavidin-HRP, OD450
Experimental: That is, both the variants and the control wild type antibodies comprised human IgG1 Fc regions. […] The contents of the plate were discarded and then the plate was blocked with PBS-CMF pH7.2+0.02% casein for 3 hours at room temperature.
The wells were washed four times with PBS-CMF pH7.2+0.03% tween-20. Streptavidin-HRP (catalog #7100-05, Southern Biotech, (Birmingham, Ala.) diluted 1:10,000 was added and incubated for 30 minutes at room temperature. The wells were washed four times with PBS-CMF pH 7.2+0.03% tween-20 and TMB (BioFx) was added.

Binder	IC50 (read off the curve)	binding result
B19	~7 nM	–
B20	~6 nM	–
B22	~6 nM	–
B21	~7 nM	–
B23	–	binds

— patent US20160008485A1 (Pfizer, published 2016)
